Where “and” joins values, the source holds several entries; their conditions need not be identical. Equal values may be shown once.

Assay [1] deals with human serum amyloid A 1.1 with the N-terminal methionine (MetSAA1.1) (human) (UniProt P0DJI8). Put plainly: SEC; Superdex 200 10/300 GL, 4°C, protein refolded at 20 µM, ~30 µL loaded, column in TBS (20 mM Tris/200 mM NaCl, pH 8.3), 0.5 mL/min; sizes from MW standards, globular shape assumed; self-association. For orientation: Size exclusion chromatography separates by hydrodynamic size, large species first.

The target is the same in assay [2]. Put plainly: SEC; "cross-purified" proteins (MetSAA1.1 also passed through Histrap Ni-NTA; hSAA1.1 also purified by cation and anion exchange), compared with "regular" proteins, refolded at 20 µM, 4°C; self-association.
For assay [3] the target is unchanged. Put plainly: SEC; as a1, protein refolded at 75 µM; self-association.
The target is the same in assay [4]. Put plainly: SEC; as a1, protein refolded at 8.5 µM; self-association.
Assay [5] addresses human serum amyloid A 1.1 (hSAA1.1), without the N-terminal methionine (human) (UniProt P0DJI8). Put plainly: SEC; Superdex 200 10/300 GL, 4°C, protein refolded at 20 µM, ~30 µL loaded, column in TBS (20 mM Tris/200 mM NaCl, pH 8.3), 0.5 mL/min; sizes from MW standards, globular shape assumed; self-association.
Assay [6] has the same target. Put plainly: SEC; as a1, protein refolded at 75 µM; self-association.
The target is the same in assay [7]. Put plainly: SEC; as a1, protein refolded at 8.5 µM; self-association.

Usually stoichiometry N stands for the number of molecules, sites or subunits per partner or assembly. Take “human serum amyloid A 1.1 with the N-terminal methionine (MetSAA1.1) (from UniProt P0DJI8 19-122) (natural protein)”: the stoichiometry N in assay [1] was 4 and 8; in assay [2], 4; in assay [3], 4 and 8; in assay [4], 8 and 4.
For “human serum amyloid A 1.1 (hSAA1.1), without the N-terminal methionine (from UniProt P0DJI8 19-122) (natural protein)”, the stoichiometry N was 8 and 6 in assay [5]; 8 and 6 in assay [6]; 4 and 8 in assay [7].

For the origin of these results see publication PMC3672174.
